Assay results published in article PMC6381284.

Molecular target: KSHV glycoprotein H/glycoprotein L (gH/gL) (Kaposi's sarcoma-associated herpesvirus (KSHV)) (UniProt F5HAK9)
Chain of UniProt F5HAK9 (F5HAK9 whole entry, looked up): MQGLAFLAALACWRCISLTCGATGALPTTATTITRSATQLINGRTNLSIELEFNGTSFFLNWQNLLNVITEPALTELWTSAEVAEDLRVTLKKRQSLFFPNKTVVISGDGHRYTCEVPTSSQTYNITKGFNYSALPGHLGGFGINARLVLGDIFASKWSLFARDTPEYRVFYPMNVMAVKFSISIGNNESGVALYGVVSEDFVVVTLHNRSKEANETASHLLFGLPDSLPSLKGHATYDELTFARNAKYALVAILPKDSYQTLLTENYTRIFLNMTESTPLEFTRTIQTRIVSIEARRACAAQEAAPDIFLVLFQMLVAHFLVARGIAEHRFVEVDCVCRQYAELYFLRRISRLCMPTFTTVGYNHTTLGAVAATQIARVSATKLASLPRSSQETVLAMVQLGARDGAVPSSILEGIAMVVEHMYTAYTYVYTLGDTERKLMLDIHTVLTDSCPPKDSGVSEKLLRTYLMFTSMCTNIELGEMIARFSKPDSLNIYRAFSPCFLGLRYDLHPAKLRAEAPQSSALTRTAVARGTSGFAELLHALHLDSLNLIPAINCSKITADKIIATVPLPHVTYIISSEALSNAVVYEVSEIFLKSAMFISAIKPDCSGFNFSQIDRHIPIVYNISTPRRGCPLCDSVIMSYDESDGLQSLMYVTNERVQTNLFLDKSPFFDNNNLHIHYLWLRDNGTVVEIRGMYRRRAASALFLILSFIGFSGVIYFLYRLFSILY

Q: “Soluble EphA4-Fc (from UniProt P54764 20-547) (Fc fusion)” was tested. Which virus-free cell-cell fusion (luciferase): CHO-K1 cells with EBV gB and KSHV gH/gL overlaid with HEK293T cells overexpressing membrane EphA4, compared with cells overexpressing EphA2 (% more fusion than with EphA2) did it give?
A: 33
